Measurements as given in publication PMC9433092, “Closely related type II-C Cas9 orthologs recognize diverse PAMs”.
Where a chain is given by its changes, count along the chain named.

B1: EMX1 TS10 (mixed)
RNA: GACUGACUGGAUGUGCACAGCAGGUUGUAGCUCCCUUUCUCAUUUCGGAAACGAAAUGAGAACCGUUGCUACAAUAAGGCCGUCUGAAAAGAUGUGCCGCAACGCUCUGCCCCUUAAAGCUUCUGCUUUAAGGGGCAUCGUUUAUUUUUUU
DNA 1: ACTGACTGGATGTGCACAGCAGTGACCG
DNA 2: CGGTCACTGCTGTGCACATCCAGTCAGT
B2: AAVS1 TS1 (mixed)
RNA: GCAGCAUAGGGUGGCAAAGCCCAGUUGUAGCUCCCUUUCUCAUUUCGGAAACGAAAUGAGAACCGUUGCUACAAUAAGGCCGUCUGAAAAGAUGUGCCGCAACGCUCUGCCCCUUAAAGCUUCUGCUUUAAGGGGCAUCGUUUAUUUUUUU
DNA 1: CAGCATAGGGTGGCAAAGCCCAGGGCCAGG
DNA 2: CCTGGCCCTGGGCTTTGCCACCCTATGCTG
B3: AAVS1 TS2 (mixed)
RNA: B2 RNA with A6G, U7C, G9A, G10A, G14A, A18U, C20G
DNA 1: CAGCGCAAAGTGACAATGGCCAGGGCCAGG
DNA 2: CCTGGCCCTGGCCATTGTCACTTTGCGCTG
B4: GRIN2B TS17 (mixed)
RNA: GUGCAGUUAGGGAAUAAGCCCCAGUUGUAGCUCCCUUUCUCAUUUCGGAAACGAAAUGAGAACCGUUGCUACAAUAAGGCCGUCUGAAAAGAUGUGCCGCAACGCUCUGCCCCUUAAAGCUUCUGCUUUAAGGGGCAUCGUUUAUUUUUUU
DNA 1: TGCAGTTAGGGAATAAGCCCCAGTGTCAAG
DNA 2: CTTGACACTGGGGCTTATTCCCTAACTGCA
B5: EMX1 TS13 (mixed)
RNA: GGUGGUAGAGGGAGCAGUAUGAGUUGUAGCUCCCUUUCUCAUUUCGGAAACGAAAUGAGAACCGUUGCUACAAUAAGGCCGUCUGAAAAGAUGUGCCGCAACGCUCUGCCCCUUAAAGCUUCUGCUUUAAGGGGCAUCGUUUAUUUUUUU
DNA 1: GGTGGTAGAGGGAGCAGTATGAGAGTCTGG
DNA 2: CCAGACTCTCATACTGCTCCCTCTACCACC
B6: EMX1 TS14 (mixed)
RNA: GCCAAGACGGUGACCAGACUCAAGUUGUAGCUCCCUUUCUCAUUUCGGAAACGAAAUGAGAACCGUUGCUACAAUAAGGCCGUCUGAAAAGAUGUGCCGCAACGCUCUGCCCCUUAAAGCUUCUGCUUUAAGGGGCAUCGUUUAUUUUUUU
DNA 1: CCAAGACGGTGACCAGACTCAAGTTACTGA
DNA 2: TCAGTAACTTGAGTCTGGTCACCGTCTTGG
B7: AAVS1 TS3 (mixed)
RNA: GUCUGACCUGCAUUCUCUCCCCUGUUGUAGCUCCCUUUCUCAUUUCGGAAACGAAAUGAGAACCGUUGCUACAAUAAGGCCGUCUGAAAAGAUGUGCCGCAACGCUCUGCCCCUUAAAGCUUCUGCUUUAAGGGGCAUCGUUUAUUUUUUU
DNA 1: TCTGACCTGCATTCTCTCCCCTGGGCCTGT
DNA 2: ACAGGCCCAGGGGAGAGAATGCAGGTCAGA
B8: EMX1 TS9 (mixed)
RNA: GUAAGACGAAUUGUAGAAAGGAGGUUGUAGCUCCCUUUCUCAUUUCGGAAACGAAAUGAGAACCGUUGCUACAAUAAGGCCGUCUGAAAAGAUGUGCCGCAACGCUCUGCCCCUUAAAGCUUCUGCUUUAAGGGGCAUCGUUUAUUUUUUU
DNA 1: TAAGACGAATTGTAGAAAGGAGAGATCAC
DNA 2: GTGATCTCTCCTTTCTACAATTCGTCTTA
B9: AAVS1 TS5 (mixed)
RNA: GGUCUGAGGGUGGAGGGACUGGGUUGUAGCUCCCUUUCUCAUUUCGGAAACGAAAUGAGAACCGUUGCUACAAUAAGGCCGUCUGAAAAGAUGUGCCGCAACGCUCUGCCCCUUAAAGCUUCUGCUUUAAGGGGCAUCGUUUAUUUUUUU
DNA 1: GGTCTGAGGGTGGAGGGACTGGGGGCCTGG
DNA 2: CCAGGCCCCCAGTCCCTCCACCCTCAGACC
B10: AAVS1 TS4 (mixed)
RNA: GCUGUCCCCUCCACCCCACAGUGGUUGUAGCUCCCUUUCUCAUUUCGGAAACGAAAUGAGAACCGUUGCUACAAUAAGGCCGUCUGAAAAGAUGUGCCGCAACGCUCUGCCCCUUAAAGCUUCUGCUUUAAGGGGCAUCGUUUAUUUUUUU
DNA 1: CTGTCCCCTCCACCCCACAGTGGGGCCACT
DNA 2: AGTGGCCCCACTGTGGGGTGGAGGGGACAG
B11: AAVS1 TS6 (mixed)
RNA: GUGAACUGGAGUGUGACAGCCUGGUUGUAGCUCCCUUUCUCAUUUCGGAAACGAAAUGAGAACCGUUGCUACAAUAAGGCCGUCUGAAAAGAUGUGCCGCAACGCUCUGCCCCUUAAAGCUUCUGCUUUAAGGGGCAUCGUUUAUUUUUUU
DNA 1: TGAACTGGAGTGTGACAGCCTGGGGCCCAG
DNA 2: CTGGGCCCCAGGCTGTCACACTCCAGTTCA

How the values were obtained:
Assay in all cases: HEK293T cells
Details in all cases: tags: NLS and HA tags, kept
Nsp2-SmuCas9 = biological target: T1, Nsp2-SmuCas9 (synthetic)
T1 chain: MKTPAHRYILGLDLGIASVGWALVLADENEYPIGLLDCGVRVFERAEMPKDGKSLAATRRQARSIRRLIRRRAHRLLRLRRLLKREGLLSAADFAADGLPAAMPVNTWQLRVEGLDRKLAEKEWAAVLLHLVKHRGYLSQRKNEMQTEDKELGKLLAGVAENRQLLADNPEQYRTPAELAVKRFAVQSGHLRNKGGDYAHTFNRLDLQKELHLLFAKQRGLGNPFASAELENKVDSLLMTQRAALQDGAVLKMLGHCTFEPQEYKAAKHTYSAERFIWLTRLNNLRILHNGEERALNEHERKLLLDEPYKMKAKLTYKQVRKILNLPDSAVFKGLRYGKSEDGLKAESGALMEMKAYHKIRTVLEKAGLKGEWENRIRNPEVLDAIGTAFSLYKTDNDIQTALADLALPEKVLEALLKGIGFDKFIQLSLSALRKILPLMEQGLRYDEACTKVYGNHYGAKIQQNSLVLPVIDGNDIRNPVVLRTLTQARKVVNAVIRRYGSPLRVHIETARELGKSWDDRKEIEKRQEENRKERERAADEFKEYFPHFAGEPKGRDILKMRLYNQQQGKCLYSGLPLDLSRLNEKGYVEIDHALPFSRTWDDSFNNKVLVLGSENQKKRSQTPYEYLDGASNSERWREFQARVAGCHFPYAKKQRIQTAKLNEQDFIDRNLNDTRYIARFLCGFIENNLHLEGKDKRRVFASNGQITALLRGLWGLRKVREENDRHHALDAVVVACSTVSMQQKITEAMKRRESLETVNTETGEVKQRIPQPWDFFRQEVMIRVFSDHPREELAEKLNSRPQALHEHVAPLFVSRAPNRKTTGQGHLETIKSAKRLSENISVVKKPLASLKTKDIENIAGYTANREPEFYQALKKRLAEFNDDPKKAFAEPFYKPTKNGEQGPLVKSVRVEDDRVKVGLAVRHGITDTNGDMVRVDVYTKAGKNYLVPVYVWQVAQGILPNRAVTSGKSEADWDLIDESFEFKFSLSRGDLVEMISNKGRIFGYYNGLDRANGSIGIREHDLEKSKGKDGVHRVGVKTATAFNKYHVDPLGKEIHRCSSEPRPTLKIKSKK

NarCas9 = biological target: T2, NarCas9 (Neisseria arctica, UniProt A0A0J0YQ19)
T2 sequence: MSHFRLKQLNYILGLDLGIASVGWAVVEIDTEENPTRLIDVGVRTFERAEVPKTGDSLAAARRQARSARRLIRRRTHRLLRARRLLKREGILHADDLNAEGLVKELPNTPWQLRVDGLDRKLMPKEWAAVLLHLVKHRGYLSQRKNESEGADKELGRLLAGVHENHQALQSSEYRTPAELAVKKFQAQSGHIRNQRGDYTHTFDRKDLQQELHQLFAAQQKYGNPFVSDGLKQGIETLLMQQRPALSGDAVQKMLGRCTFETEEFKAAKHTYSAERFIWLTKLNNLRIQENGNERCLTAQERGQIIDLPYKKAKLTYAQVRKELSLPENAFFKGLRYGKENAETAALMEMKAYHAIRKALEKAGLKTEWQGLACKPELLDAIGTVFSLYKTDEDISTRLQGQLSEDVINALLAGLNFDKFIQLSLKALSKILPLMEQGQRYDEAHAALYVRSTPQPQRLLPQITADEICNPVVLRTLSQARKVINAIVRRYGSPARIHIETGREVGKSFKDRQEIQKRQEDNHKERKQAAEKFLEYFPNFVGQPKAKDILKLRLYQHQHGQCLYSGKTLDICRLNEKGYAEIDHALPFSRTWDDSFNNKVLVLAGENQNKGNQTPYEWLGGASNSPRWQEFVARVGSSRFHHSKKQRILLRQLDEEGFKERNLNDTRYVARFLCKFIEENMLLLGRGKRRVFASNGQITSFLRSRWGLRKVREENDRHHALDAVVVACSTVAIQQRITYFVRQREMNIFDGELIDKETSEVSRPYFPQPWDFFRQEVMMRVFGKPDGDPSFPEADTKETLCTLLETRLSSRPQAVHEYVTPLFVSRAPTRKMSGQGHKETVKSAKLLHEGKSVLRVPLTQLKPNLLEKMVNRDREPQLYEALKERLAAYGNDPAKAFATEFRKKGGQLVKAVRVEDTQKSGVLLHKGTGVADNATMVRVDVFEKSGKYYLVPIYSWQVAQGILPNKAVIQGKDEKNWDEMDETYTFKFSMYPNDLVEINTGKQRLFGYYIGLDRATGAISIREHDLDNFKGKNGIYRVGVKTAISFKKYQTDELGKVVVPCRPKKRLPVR

Nme2-SmuCas9 = biological target: T3, Nme2-SmuCas9 (synthetic)
T3 chain: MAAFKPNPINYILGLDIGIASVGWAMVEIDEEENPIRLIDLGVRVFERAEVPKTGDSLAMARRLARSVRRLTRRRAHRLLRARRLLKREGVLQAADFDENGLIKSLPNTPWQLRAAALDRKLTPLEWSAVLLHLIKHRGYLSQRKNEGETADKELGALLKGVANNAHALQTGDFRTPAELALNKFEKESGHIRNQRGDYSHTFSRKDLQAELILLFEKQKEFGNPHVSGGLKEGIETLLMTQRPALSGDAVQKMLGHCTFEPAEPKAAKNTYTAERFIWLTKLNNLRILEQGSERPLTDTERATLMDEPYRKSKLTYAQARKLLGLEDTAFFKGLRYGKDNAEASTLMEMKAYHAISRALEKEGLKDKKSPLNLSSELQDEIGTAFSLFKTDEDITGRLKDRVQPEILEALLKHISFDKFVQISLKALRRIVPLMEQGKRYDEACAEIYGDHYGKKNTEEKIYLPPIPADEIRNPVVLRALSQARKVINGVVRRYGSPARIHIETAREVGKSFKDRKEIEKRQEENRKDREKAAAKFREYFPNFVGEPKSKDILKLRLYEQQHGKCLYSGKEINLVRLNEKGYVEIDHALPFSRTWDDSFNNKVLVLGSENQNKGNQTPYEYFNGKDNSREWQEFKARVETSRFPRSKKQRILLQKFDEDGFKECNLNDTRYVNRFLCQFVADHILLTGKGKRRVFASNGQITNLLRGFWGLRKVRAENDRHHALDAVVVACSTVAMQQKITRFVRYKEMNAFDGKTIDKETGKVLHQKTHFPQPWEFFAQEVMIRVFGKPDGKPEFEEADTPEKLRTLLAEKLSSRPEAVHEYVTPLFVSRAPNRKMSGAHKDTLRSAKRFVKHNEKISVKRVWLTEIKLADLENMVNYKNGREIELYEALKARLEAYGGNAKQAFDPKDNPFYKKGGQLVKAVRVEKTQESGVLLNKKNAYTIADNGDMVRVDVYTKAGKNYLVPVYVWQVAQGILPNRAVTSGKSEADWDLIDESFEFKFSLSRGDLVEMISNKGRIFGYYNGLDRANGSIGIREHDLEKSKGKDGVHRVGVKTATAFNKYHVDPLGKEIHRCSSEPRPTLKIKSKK

| Binder | indel frequency (Nsp2-SmuCas9) [% indels] | indel frequency (NarCas9) [% indels] | indel frequency (Nme2-SmuCas9) [% indels] |
| --- | --- | --- | --- |
| B1 | 5.48 |  |  |
| B2 | 16.7 | 10.9 |  |
| B3 | 12.4 |  |  |
| B4 | 23.2 | 7.65 |  |
| B5 | 35.6 | 18.4 | 12.2 |
| B6 | 16.5 |  |  |
| B7 | 17.9 | 9.89 |  |
| B8 | 16 |  |  |
| B9 | 17.8 | 13.2 | 14.5 |
| B10 | 6.53 | 5.75 |  |
| B11 | 6.16 |  |  |
